How the values were obtained:
[1] = Mouse collagen induced arthritis (CIA) model; format: in vivo, mice; conditions: for IL-6 levels / SAA concentrations: Day 0 serum 4 hr post 25 μg LPS
Protocol: Ten week old male DBA/1J mice (Jackson Labs) were divided into 3 groups of 13 mice/group. On day-21, animals were given a subcutaneous injection of 50-100 μl of 1 mg/ml chick Type II collagen formulated in Complete Freund's Adjuvant (prepared by Chondrex, Redmond, Wash.), and three weeks later on Day 0 they were given a 100 μl (25 μg) injection of LPS from E. coli 0111:B4, prepared as 250 μg/ml from a lyophilized aliquot (Sigma, St. Louis, Mo.). Zcytor16 was administered as an intraperitoneal injection 3 times a week for 4 weeks, from Day 0 to Day 25. The first two groups received either 100 or 10 μg of zcytor16 per animal per dose, and the third group received the vehicle control, PBS (Life Technologies, Rockville, Md.). Animals began to show symptoms of arthritis following the LPS injection, with most animals developing inflammation within 2-3 weeks. The extent of disease was evaluated in each paw by using a caliper to measure paw thickness, and by assigning a clinical score (0-3) to each paw: 0=Normal, 0.5=Toe(s) inflamed, 1=Mild paw inflammation, 2=Moderate paw inflammation, and 3=Severe paw inflammation as detailed below.
All animals were observed daily to assess the status of the disease in their paws, which was done by assigning a qualitative clinical score to each of the paws. Every day, each animal has its 4 paws scored according to its state of clinical disease. To determine the clinical score, the paw can be thought of as having 3 zones, the toes, the paw itself (manus or pes), and the wrist or ankle joint. The extent and severity of the inflammation relative to these zones was noted including observation all the toes for any joint swelling, torn nails, or redness, notation of any evidence of edema or redness in any of the paws, and notation any loss of fine anatomic demarcation of tendons or bones, and evaluation the wrist or ankle for any edema or redness, and notation if the inflammation extends proximally up the leg. A paw a score of 1, 2, or 3 was based first on the overall impression of severity, and second on how many zones were involved. The scale used for clinical scoring is shown below.
Blood was collected throughout the experiment to monitor serum levels of anti-collagen antibodies. Animals were euthanized on Day 21, and blood was collected for serum and for CBC's. From each animal, one affected paw was collected in 10% NBF for histology and one was frozen in liquid nitrogen and stored at […] for mRNA analysis. Also, ½ spleen, ½ thymus, ½ mesenteric lymph node, one liver lobe and the left kidney were collected in RNAlater for RNA analysis, and ½ spleen, ½ thymus, ½ mesenteric lymph node, the remaining liver, and the right kidney were collected in 10% NBF for histology. Serum was collected and frozen at −80° C. for immunoglobulin and cytokine assays.
Approximately 100 μL of peripheral blood was collected by retro-orbital bleed into serum separator tubes (Becton Dickinson). Serum was collected by centrifugation (2-3 min, 16,000×g, 4-6° C.) and stored at −20° C. until analyzed. To determine anti-collagen Ig antibody levels, NUNC plates were coated with 10 μg/mL chick type-II collagen (Chondrex, Redmond Wash.) and incubated overnight at 4° C. Plates were washed with ELISA C, blocked (5 minutes, room temperature) with Super Block (Pierce, Rockford, Ill.), and washed with ELISA C. Diluted serum samples (diluted in ELISA B 5-fold from 1:5000 to 1:625,000) were added to ELISA plates in triplicate and the plates were incubated overnight at 4° C. After incubation, the plates were washed with ELISA C, and peroxidase-labeled goat anti-mouse Ig Fc (Zymed, 1:2000 in ELISA B) was added. The plates were incubated (room temperature, 90 minutes), rinsed again using ELISA C, and HRP activity was developed using o-phenylenediamine dihydrochloride substrate (10 mL NovoD+1 tablet OPD+10 μL H2O2, Pierce). The reaction was stopped with 1N H2SO4. […]

[2] = target: T1, IL-TIF (Homo sapiens, UniProt Q9GZX6); experiment: Inhibition of IL-TIF-induced proliferation of BaF3/CRF2-4/zcytor11 cells by soluble receptors; format: cell-based; conditions: 100 pg/ml IL-TIF
T1 sequence (Q9GZX6 13-179 limits assumed): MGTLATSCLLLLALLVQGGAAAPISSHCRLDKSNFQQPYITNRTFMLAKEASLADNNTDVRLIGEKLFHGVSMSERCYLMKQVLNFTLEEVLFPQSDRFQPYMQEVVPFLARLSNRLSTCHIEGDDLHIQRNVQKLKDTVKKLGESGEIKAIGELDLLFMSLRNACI
Protocol: BaF3/CRF2-4/zcytor11 cells described herein were spun down and washed in PBS 2 times to ensure the removal of the mIL-3, and then spun a third time and re-suspended in the complete media (RPMI 1640, 10% FBS, 1% GlutaMAX, 1% Sodium Pyruvate), but without mIL-3 (hereinafter referred to as “mIL-3 free media”). Cells were then counted in a hemocytometer. Cells were plated in a 96-well format at 5000 cells per well in a volume of 100 μl per well using the mIL-3 free media.
IL-TIF protein (SEQ ID NO:3) was diluted to 200 pg/ml in mIL-3 free media. Zcytor16-Fc4 fusion protein (described herein) was diluted to 1 μg/ml in the mIL-3 free/IL-TIF media on the top row of the plate, and then diluted serially 1:2 down the remaining 7 rows on the 96-well plate, leaving a volume of 100 μl in each well. This was then added to the 100 μl of cells, for a final IL-TIF concentration of 100 pg/ml in all wells, and final Zcytor16-Fc4 concentrations of approximately […], 0.016, and 0.008 μg/ml in a total assay volume of 200 μl. CRF2-4/zcytor11-Fc4 was diluted to 8 μg/ml in the mIL-3 free/IL-TIF media on the top row of the plate, and then diluted serially 1:2 down the remaining 7 rows on the 96-well plate, leaving a volume of 100 μl in each well. This was then added to the 100 μl of cells, for a final IL-TIF concentration of 100 pg/ml in all wells, and final CRF2-4/zcytor11-Fc4 concentrations of approximately […], 0.25, 0.125 and 0.063 μg/ml, in a total assay volume of 200 The assay plates were incubated at 37° C., 5% CO2 for 4 days at which time Alamar Blue (Accumed, Chicago, Ill.) was added at […]. Plates were again incubated at 37° C., 5% CO2 for 16 hours. Alamar Blue gives a fluourometric readout based on number of live cells, and is thus a direct measurement of cell proliferation in comparison to a negative control. Plates were read on the Wallac Victor 2 1420 Multilabel Counter (Wallac, Turku, Finland) at wavelengths 530 (Excitation) and 590 (Emmssion). […] IL-TIF alone stimulated the cells 13-fold over background.

concentrations completely inhibiting proliferation [2]: 0.025 to 1 µg/mL | concentrations partially inhibiting proliferation, lower end [2]: ≥ 8 ng/mL | inhibition of the proliferative effect of IL-TIF [2]: strong dose-dependant inhibition
B1: zcytor16-Fc4: soluble receptor for IL-TIF, zcytor16 fused to Fc4; IL-TIF antagonist (protein)
chain: TQSTHESLKPQRVQFQSRNFHNILQWQPGRALTGNSSVYFVQYKIYGQRQWKNKEDCWGTQELSCDLTSETSDIQEPYYGRVRAASAGSYSEWSMTPRFTPWWETKIDPPVMNITQVNGSLLVILHAPNLPYRYQKEKNVSIEDYYELLYRVFIINNSLEKEQKVYEGAHRAVEIEALTPHSSYCVVAEIYQPMLDRRSQRSEERCVEIPEPRSSDKTHTCPPCPAPEAEGAPSVFLFPPKPKDTLMISRTPEVTCVVVDVSHEDPEVKFNWYVDGVEVHNAKTKPREEQYNSTYRVVSVLTVLHQDWLNGKEYKCKVSNKALPSSIEKTISKAKGQPREPQVYTLPPSRDELTKNQVSLTCLVKGFYPSDIAVEWESNGQPENNYKTTPPVLDSDGSFFLYSKLTVDKSRWQQGNVFSCSVMHEALHNHYTQKSLSLSPGK
disease score (paw score, incident of inflammation or disease) ([1]; 10 μg three times a week for 4 weeks): significantly reduced the disease score | IL-6 levels ([1]; 10 μg zcytor16): 10,865+/−1478 pg/ml | SAA concentrations ([1]; 10 μg zcytor16): 348 ± 37 µg/mL | levels of anti-collagen antibodies ([1]; 100 μg or 10 μg groups vs PBS, serum ELISA): no statistically significant effects | IL-6 levels ([1]; 100 μg zcytor16): 9651 ± 1563 pg/mL | SAA concentrations ([1]; 100 μg zcytor16): 381 ± 40 µg/mL | paw scores and measurements ([1]; 100 or 10 μg IP 3 times a week for 4 weeks vs PBS): No statistically significant differences | changes in body weight, CBC parameters, or anti-collagen antibody levels ([1]; 100 or 10 μg IP vs PBS): no significant differences

Source: patent publication US8524227B2, “Anti-IL-TIF antibodies” (ZymoGenetics, Inc., priority 2002, dated 2013)
